The target in experiment [1] is T1, CAR receptor (human (endogenous in A549), UniProt P78310 20-365).
T1 construct: source: endogenous, on A549 cells
T1 sequence: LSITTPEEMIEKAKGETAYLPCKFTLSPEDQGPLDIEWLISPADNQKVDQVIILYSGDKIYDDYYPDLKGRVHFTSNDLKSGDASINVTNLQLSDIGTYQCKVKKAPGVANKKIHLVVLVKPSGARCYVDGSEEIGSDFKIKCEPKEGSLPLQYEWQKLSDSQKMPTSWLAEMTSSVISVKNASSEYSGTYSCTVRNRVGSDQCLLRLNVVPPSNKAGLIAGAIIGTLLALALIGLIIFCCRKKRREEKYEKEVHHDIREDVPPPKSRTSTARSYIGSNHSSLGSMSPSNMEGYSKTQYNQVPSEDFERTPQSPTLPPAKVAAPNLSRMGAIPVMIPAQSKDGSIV
The experiment in a line: flow cytometry on cells; as a6, but the Alexa Fluor 488-labelled Ad5.eGFP was pre-incubated with 20 µM HD5 for 45 min on ice. The conditions noted are these: one partner purified.

Experiment [2] deals with T1, CAR receptor. The experiment in a line: flow cytometry on cells; A549 cells in PBS + 0.2% sodium azide incubated with or without 200 nM 5FK or 16FK, 45 min on ice (100 nM in the legend), then combined with Alexa Fluor 488-labelled Ad5.eGFP without defensin (virus pre-incubated with 20 µM HD5-Abu was equivalent to virus alone), 45 min on ice. The conditions noted are these: one partner purified.

B1: recombinant HAdV-5 fiber knob (domain or fragment)
chain: GAITVGNKNNDKLTLWTTPAPSPNCRLNAEKDAKLTLVLTKCGSQILATVSVLAVKGSLAPISGTVQSAHLIIRFDENGVLLNNSFLDPEYWNFRNGDLTEGTAYTNAVGFMPNLSAYPKSHGKTAKSNIVSQVYLNGDKTKPVTLTITLNGTQETGDTTPSAYSMSFSWDWSGHNYINEIFATSSYTFSYIAQE
notes: fiber knob, residues 387-581 of the HAdV-5 fiber; also called 5FK
As to B1, the “fold reduction of HAdV-5 binding to cells with 5FK compared to 16FK, virus pre-incubated with HD5” value with CAR receptor [1] worked out at 1.6 fold. In the experiment with CAR receptor [2], the “fold reduction of HAdV-5 binding to cells with 5FK compared to 16FK” value was 5.2 fold.

The values above are taken from paper PMC2891831, “Insight into the Mechanisms of Adenovirus Capsid Disassembly from Studies of Defensin Neutralization” (PLoS Pathogens, 2010).
